{"source": "patent US20240400652A1", "about": "(VIR BIOTECHNOLOGY, published 2024)", "target": "SARS-CoV-2 Spike protein on pseudotyped virus (SARS-CoV-2, UniProt P0DTC2 14-1273)", "test": "cell-based or functional assay", "data": [{"binder": "SARS-CoV-2 S315 (antibody, V domains shown) VH: EVQLVESGGGLVQPGGSLRLSCAASGFTFSNYWMTWVRQAPGKGLEWVANIKQDGSEKYYVDSVKGRFTISRDNAKNSLYLQMNSLRAEDTAVYYCARDLWWNDQAHYYGMDVWGQGTTVTVSS VL: SYELTQPPSVSVSPGQTARITCSGDAFPNQYAYWYQQKPGQAPVMLIYKDSERPSGIPERFFGSSSGTTVTLTIRGVQAEDEADYYCQSADSSGTVFGGGTKLTVL", "values": [{"measurement": "IC50, neutralization of SARS-CoV-2pp, DBT-ACE2 cells (further assays)", "result": 25.1, "unit": "µg/mL"}]}, {"binder": "SARS-CoV-2 S304 (antibody, V domains shown) VH: EVQLVESGGGLVQPGGSLRLSCAASGFTFSSYDMHWVRQTTGKGLEWVSTIGTAGDTYYPDSVKGRFTISREDAKNSLYLQMNSLRAGDTAVYYCARGDSSGYYYYFDYWGQGTLLTVSS VL: DIQMTQSPSSLSAAVGDRVTITCRASQSIGSYLNWYQQKPGKAPKLLIYAASSLQSGVPSRFSGSGSGTDFTLTISSLQPEDFAIYYCQQSYVSPTYTFGPGTKVDIK", "values": [{"measurement": "IC50, neutralization of SARS-CoV-2pp, DBT-ACE2 cells", "result": "~17", "unit": "µg/mL"}]}]}
